The values below come from article PMC11742385, “Selection and Characterization of a DNA Aptamer Recognizing High Mobility Group Box 1 Protein (HMGB1) and Enhancing Its Pro-inflammatory Activity”.

For one data set, the target named is T1, rhHMGB1 A box (Homo sapiens, UniProt P09429 9-79).
T1 sequence: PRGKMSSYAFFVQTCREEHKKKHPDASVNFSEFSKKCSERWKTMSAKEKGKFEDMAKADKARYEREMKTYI
Kind of data set: microplate aptamer binding assay; dot blot; 1 mM Mg2+, 1 mM Ca2+; 5 nM aptamer (microplate); SHMCK: 20 mM Hepes, 120 mM NaCl, 5 mM KCl, 1 mM MgCl2, 1 mM CaCl2, pH 7.4, 37 C, 1 h; protein coated 2 pmol/well, 3% BSA block, PBST washes. The note with it: protein: recombinant; tags: His tag implied (pET28a, Ni-NTA); predicted hairpin (9-50) and stem-loops (52-69) linked by a T.

The next data set addresses rhHMGB1 (Homo sapiens, UniProt P09429 1-215). Kind of data set: microplate aptamer binding assay (streptavidin-HRP); 1 mM Mg2+, 1 mM Ca2+; SHMCK: 20 mM Hepes, 120 mM NaCl, 5 mM KCl, 1 mM MgCl2, 1 mM CaCl2, pH 7.4, 37 C, 1 h; protein coated 2 pmol/well, 3% BSA block, PBST washes. The note with it: protein: recombinant; tags: His tag implied (pET28a, Ni-NTA); predicted hairpin (9-50) and stem-loops (52-69) linked by a T.

Another data set addresses T2, rhHMGB2 (UniProt P26583 1-209).
T2 sequence: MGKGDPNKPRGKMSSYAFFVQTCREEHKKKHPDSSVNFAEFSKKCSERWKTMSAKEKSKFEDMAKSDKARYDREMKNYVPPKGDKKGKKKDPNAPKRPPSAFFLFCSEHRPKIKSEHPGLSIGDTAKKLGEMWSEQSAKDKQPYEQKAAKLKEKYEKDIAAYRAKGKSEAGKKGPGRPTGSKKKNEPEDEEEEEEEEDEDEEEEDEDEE
Kind of data set: microplate aptamer binding assay; 1 mM Mg2+, 1 mM Ca2+; 5 nM aptamer; SHMCK: 20 mM Hepes, 120 mM NaCl, 5 mM KCl, 1 mM MgCl2, 1 mM CaCl2, pH 7.4, 37 C, 1 h; protein coated 2 pmol/well, 3% BSA block, PBST washes. The note with it: protein: commercial; predicted hairpin (9-50) and stem-loops (52-69) linked by a T.

rhHMGB1, sequence (P09429 whole entry): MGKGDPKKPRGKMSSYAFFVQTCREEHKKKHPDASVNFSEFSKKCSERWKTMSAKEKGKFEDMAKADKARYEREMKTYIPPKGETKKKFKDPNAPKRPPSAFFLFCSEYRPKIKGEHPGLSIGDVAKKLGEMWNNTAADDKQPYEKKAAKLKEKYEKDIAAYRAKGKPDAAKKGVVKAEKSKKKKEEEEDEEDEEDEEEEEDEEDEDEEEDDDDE

B1: H-ap25 (structured_DNA)
DNA: GGACAAGAATCACCGCTCTGGGTTTGGCGTCGGGCCTGGCGAAAGGTGGTTGTGCGGAGAGAGCGTACAGGAGGCATACAG
For B1, the binding result in the data set with rhHMGB1 A box and with rhHMGB2 was “no binding” each time. The Kd – broadly, a measure of binding affinity in units of concentration – with rhHMGB1 was 8.2 ± 0.53 nM.
